Key:
odorant receptor AaOR8 = assay: Aequorin luminescence measurement in HEK293FT cells co-expressing AaOR8 and a co-receptor, 1-octen-3-ol added; format: cell-based; conditions: 1-octen-3-ol 10^-4 to 10^-10 M, compared to cells that expressed original AmORCO or DmORCO
Procedure: HEK293FT cells (purchased from invitrogen, Inc.) were inoculated into 10-cm Petri dishes at a concentration of 3×10^6 cells/Petri dish, and the cells were cultured in DMEM medium containing 10% FBS (manufactured by Nacalai Tesque, Inc.) for about 24 hours under the conditions of 37° C. and 5% CO2. 3 μg of any one of the co-receptor expression plasmids produced, 1.5 μg of any one of the odorant receptor expression plasmids produced, and 8 μg of Aequorin expression plasmid were mixed with 12.5 μL of Plus reagent and 31.25 μL of LIPOFECTAMINE LTX (manufactured by Invitrogen, Inc.), and the mixture was maintained for 30 minutes. Subsequently this liquid mixture was transfected into the above-mentioned cells. After 4 hours from the initiation of transfection, the cells were inoculated onto a 96-well plate at a concentration of 9×10^4 cells/well, and the cells were cultured in DMEM medium containing 10% FBS (manufactured by Nacalai Tesque, Inc.) for about 24 hours under the conditions of 37° C. and 5% CO2. Thereby, transformed cells having a co-receptor expression plasmid, an odorant receptor expression plasmid, and an aequorin expression plasmid transiently incorporated therein were obtained.
Aequorin is activated when hound to a calcium ion, and oxidizes a substrate such as coelenterazine, thus emitting light. […] Therefore, whether an odorant receptor complex functions an ion channel as a result of addition of a substance to be detected, can be measured from the change in the amount of luminescence.
A culture fluid of the transformed cells was removed, and the medium was exchanged with Hanks-HEPES (20 mM, pH 7.4) including Assay buffer (0.5 μM coelenterazine h (manufactured by Promega Corporation) and 0.3% BSA. culture system was left to stand for another 4 hours at room temperature. Subsequently, a substance to be detected, which corresponded to an odorant receptor, was added to the cell culture using FLEXSTATION 3 (manufactured by Molecular Devices, LLC), and at the same time, the amount of luminescence of the cells was measured. As a control substance, the amount of luminescence in the cells to which dimethyl sulfoxide had been added was designated as 1, and the amount or luminescence of cells to which the substance to be detected was added was calculated as a relative value.
(§1) Cells into which: • an expression plasmid of odorant receptor AaOR8; • an expression plasmid of any one of co-receptor AaORCO or DmORCO, or various chimeric co-receptors Dm-AaORCO having different positions of recombination [Dm(NT-EC1)AaORCO, Dm(NT-TM3)AaOROC, Dm(NT-TM4)AaORCO, Dm(NT-TM5)AaORCO, or Dm(NT-TM6)AaORCO]; and • an aequorin expression plasmid had been incorporated were used, and the amount of luminescence was measured as explained above. 1-Octen-3-ol was used as a substance to be detected, and 1-octen-3-ol was added to the culture fluid at a concentration of 10^−4 M, 10^−5 M, 10^−6 M, 10^−7 M, 10^−8 M, 10^−9 M, or 10^−10 M. The results are presented in FIG. 1.
as §1, with “AmORCO” for “AaORCO”, “Dm-AmORCO” for “Dm-AaORCO”, “[Dm(NT-TM3)AmOROC, Dm(NT-TM4)AmORCO, Dm(NT-TM5)AmORCO,” for “[Dm(NT-EC1)AaORCO, Dm(NT-TM3)AaOROC, Dm(NT-TM4)AaORCO, Dm(NT-TM5)AaORCO,”, “Dm(NT-TM6)AmORCO];” for “Dm(NT-TM6)AaORCO];”, “2. […]” for “1.”

odorant receptor BmOR56 = assay: Aequorin luminescence measurement in HEK293FT cells co-expressing BmOR56 and a co-receptor, cis-jasmone added; format: cell-based, Bombyx mori; conditions: cis-jasmone 10^-5 to 10^-11 M, compared to cells that expressed BmORCO and BmOR56
Procedure: (§2) HEK293FT cells (purchased from invitrogen, Inc.) were inoculated into 10-cm Petri dishes at a concentration of 3×10^6 cells/Petri dish, and the cells were cultured in DMEM medium containing 10% FBS (manufactured by Nacalai Tesque, Inc.) for about 24 hours under the conditions of 37° C. and 5% CO2. 3 μg of any one of the co-receptor expression plasmids produced, 1.5 μg of any one of the odorant receptor expression plasmids produced, and 8 μg of Aequorin expression plasmid were mixed with 12.5 μL of Plus reagent and 31.25 μL of LIPOFECTAMINE LTX (manufactured by Invitrogen, Inc.), and the mixture was maintained for 30 minutes. Subsequently this liquid mixture was transfected into the above-mentioned cells. […]
(§3) Aequorin is activated when hound to a calcium ion, and oxidizes a substrate such as coelenterazine, thus emitting light. […] Therefore, whether an odorant receptor complex functions an ion channel as a result of addition of a substance to be detected, can be measured from the change in the amount of luminescence. […]
Cells into which: • an expression plasmid of odorant receptor BmOR56; • an expression plasmid of any one of co-receptor BmORCO or chimeric co-receptor Dm(NT-TM4)AmORCO; and • an aequorin expression plasmid had been incorporated were used, and the amount of luminescence was measured as explained above. […]

odorant receptor DmOR47a = assay: Aequorin luminescence measurement in HEK293FT cells co-expressing DmOR47a and a co-receptor, pentyl acetate added; format: cell-based, Drosophila melanogaster; conditions: pentyl acetate 10^-4 to 10^-7 M, compared to cells that expressed original DmORCO or AmORCO
Procedure: as §2, §3
Cells into which: • an expression plasmid of odorant receptor DmOR47a; • an expression plasmid of any one of co-receptor DmORCO or AmORCO, or chimeric co-receptor Dm(NT-TM4)AmORCO; and • an aequorin expression plasmid had been incorporated were used, and the amount of luminescence was measured as explained above. […]

Chain of odorant receptor AaOR8 (as listed by the source): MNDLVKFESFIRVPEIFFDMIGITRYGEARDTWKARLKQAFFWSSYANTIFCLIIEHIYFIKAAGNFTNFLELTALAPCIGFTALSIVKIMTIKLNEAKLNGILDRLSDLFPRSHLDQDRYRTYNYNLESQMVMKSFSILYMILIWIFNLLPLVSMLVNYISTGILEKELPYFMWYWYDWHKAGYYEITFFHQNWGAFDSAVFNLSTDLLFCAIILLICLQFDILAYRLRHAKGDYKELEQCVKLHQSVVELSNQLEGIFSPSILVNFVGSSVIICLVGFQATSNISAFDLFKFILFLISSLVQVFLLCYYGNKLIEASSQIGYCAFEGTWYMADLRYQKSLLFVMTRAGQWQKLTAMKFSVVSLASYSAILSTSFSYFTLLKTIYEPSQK
Chain of odorant receptor BmOR56 (as listed by the source, one chain of several): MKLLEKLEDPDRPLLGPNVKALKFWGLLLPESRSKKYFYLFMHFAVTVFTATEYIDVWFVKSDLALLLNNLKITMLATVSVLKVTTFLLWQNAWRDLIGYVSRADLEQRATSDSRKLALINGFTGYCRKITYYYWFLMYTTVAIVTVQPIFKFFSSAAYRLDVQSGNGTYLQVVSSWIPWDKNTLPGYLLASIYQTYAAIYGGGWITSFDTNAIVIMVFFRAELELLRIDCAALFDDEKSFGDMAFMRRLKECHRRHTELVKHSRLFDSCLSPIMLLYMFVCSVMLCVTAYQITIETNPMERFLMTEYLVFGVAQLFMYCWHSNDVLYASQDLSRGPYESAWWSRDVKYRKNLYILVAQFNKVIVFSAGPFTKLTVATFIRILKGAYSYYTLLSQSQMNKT
Chain of odorant receptor DmOR47a (as listed by the source, one chain of several): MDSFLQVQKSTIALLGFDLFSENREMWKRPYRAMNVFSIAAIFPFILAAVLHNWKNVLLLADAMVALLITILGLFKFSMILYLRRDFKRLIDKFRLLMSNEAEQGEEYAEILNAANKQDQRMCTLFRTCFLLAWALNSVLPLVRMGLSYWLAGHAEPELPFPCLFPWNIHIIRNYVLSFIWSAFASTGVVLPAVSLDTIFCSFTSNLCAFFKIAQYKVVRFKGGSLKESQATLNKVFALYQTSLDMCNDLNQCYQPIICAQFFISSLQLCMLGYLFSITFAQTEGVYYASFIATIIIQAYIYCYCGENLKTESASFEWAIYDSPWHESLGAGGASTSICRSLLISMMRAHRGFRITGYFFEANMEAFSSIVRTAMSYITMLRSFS

B1: Dm(NT-TM4)AmORCO: chimeric co-receptor: NT to TM4 from Drosophila co-receptor, IC2 to C-terminal domain from Apis co-receptor; SEQ ID NO:100 (protein)
chain: MTTSMQPSKYTGLVADLMPNIRAMKYSGLFMHNFTGGSAFMKKVYSSVHLVFLLMQFTFILVNMALNAEEVNELSGNTITTLFFTHCITKFIYLAVNQKNFYRTLNIWNQVNTHPLFAESDARYHSIALAKMRKLFFLVMLTTVASATAWTTITFFGDSVKMVVDHETNSSIPVEIPRLPIKSFYPWNASHGMFYMISFAFQIYYVLFSMIHSNLCDVMFCSWLIFACEQLQHLKNIMKPLMEFSATLDTVVPNSGELFKAGSAEQPKEQEPLPPVTPPQGENMLDMDLRGIYSNRTDFTTTFRPTAGMTFNGGVGPNGLTKKQEMLVRSAIKYWVERHKHIVRLVTAIGDAYGVALLLHMLTTTITLTLLAYQATKIHAVDTYAASVVGYLLYSLGQVFMLCIFGNRLIEESSSVMEAAYSCHWYDGSEEAKTFVQIVCQQCQKAMSISGAKFFTVSLDLFASVLGAMVTYFMVLVQLK
Odorant receptor AaOR8
  increase in the amount of luminescence caused by addition of 1-octen-3-ol: the increase in the amount of luminescence caused by addition of 1-octen-3-ol was larger
Odorant receptor BmOR56
  response (relative amount of luminescence) to cis-jasmone: responded more strongly to cis-jasmone
Odorant receptor DmOR47a
  response (relative amount of luminescence) to pentyl acetate: responded more strongly to pentyl acetate

From patent US11919930B2, “Odorant receptor co-receptor” (Sumitomo Chemical Company, Limited, priority 2016, dated 2024)
